Test results from article PMC7153000, “Radiosynthesis, Biological Evaluation, and Preclinical Study of a ^68Ga-Labeled Cyclic RGD Peptide as an Early Diagnostic Agent for Overexpressed αvβ3 Integrin Receptors in Non-Small-Cell Lung Cancer” (Contrast Media & Molecular Imaging, 2020).

Experiments:
in vitro = in vitro ADME; settings: human, plasma
Experimental: The protein binding properties of [^68Ga]Ga-DOTA-E(cRGDfK)2 in blood were investigated by protein precipitation. 1ml of the labeled complex and 3ml of human plasma were mixed and incubated for 1 hour at 37°C. Then, an equal volume of 10% trichloroacetic acid (TCA) was added, and samples were centrifuged at 3,000 rpm for 10 min […]. Precipitate was resuspended in 5% TCA and centrifuged at 3,000 rpm for 10 min. Precipitate and the supernatant fractions were analyzed for radioactivity in a gamma counter. Protein binding of [^68Ga]Ga-DOTA-E(cRGDfK)2 was expressed as the fraction of radioactivity bound to the protein, in percentage of the total radioactivity.

A549 tumor = test system: A549 tumor; set-up: species or system BALB/c mice; settings: mouse, in vivo
Experimental: 100 μg of [^68Ga]Ga-DOTA-E(cRGDfK)2 formulated in 100 μL saline was injected via the tail vein of 3 groups of 3 BALB/c mice. At 30, 60, and 90 min postinjection, mice were euthanized using a lethal dose of ketamine/xylazine, and blood was collected from the heart using a preheparinised syringe. Tumor and normal organs were excised, washed, weighed, and the radioactivity of each organ was determined using a well-type gamma counter. The organ uptake was measured as percent of the injected dose per gram of organ tissue (%ID/g). A blocking experiment was performed in the presence of a 500-fold excess of unlabeled DOTA-E(cRGDfK)2 30 min before [^68Ga]Ga-DOTA-E(cRGDfK)2 injection.
6–8 weeks female BALB/c mice (with body weights of 20–25 g) were purchased from Royan Insitute (Amol, Iran). Animals were housed in wire cages under controlled conditions of temperature at 25°C, relative humidity around 50%, and 12/12 h light/dark cycles with food, and water was given ad libitum. 2 × 10^6 cell suspensions of human lung adenocarcinoma A549 in 100 μl PBS were injected subcutaneously in the right dorsal flank of each mouse. Palpable tumor diameter was measured using digital calipers twice weekly. When tumor size reached a mean tumor volume of 50–100 mm^3, animals received a tail vein injection of 740 kBq of [^68Ga]Ga-DOTA-E(cRGDfK)2 in 100 μl normal saline. […]

physchem = type: physicochemical; settings: pH 7.4
Experimental: In a 5 ml Eppendorf tube, 100 μl of the radiolabelled peptide, 0.99 ml of PBS, pH 7.4, and 1 ml n-octanol were mixed. After intense vortexing for 8 min, the two layers were separated by centrifugation. Then, 500 μl aliquots of aqueous and organic layers were transferred to a new tube, radioactivity was measured in a well-type gamma counter (Delshid Gamma counter, Tehran, Iran), and partition coefficient (log P) values were calculated (n = 3).

integrin αvβ3 = settings: cRGDfK as reference; cited from earlier work
From the text: Based on previous studies, multimeric cyclic RGD has higher (20–100 more) αvβ3 binding affinity than its monomeric alternatives. […] Many other works reported higher dissociation constant or lower affinity.

Molecule	In vitro protein binding (in vitro; 1 h) [%]	fraction unbound at 1 h (in vitro; In vitro protein binding)	Clearance (A549 tumor)	Uptake of radioactivity in the kidney and intestine (A549 tumor)	logD (physchem)	Kd (integrin αvβ3) [nM]
N=C(N)NCCC[C@@H]1NC(=O)[C@H](CCCCNC(=O)CC[C@H](NC(=O)CN2CCN(CC(=O)O)CCN(CC(=O)O)CCN(CC(=O)O)CC2)C(=O)NCCCC[C@@H]2NC(=O)[C@@H](Cc3ccccc3)NC(=O)[C@H](CC(=O)O)NC(=O)CNC(=O)[C@H](CCCNC(=N)N)NC2=O)NC(=O)[C@@H](Cc2ccccc2)NC(=O)[C@H](CC(=O)O)NC(=O)CNC1=O [[^68Ga]Ga-DOTA-E(cRGDfK)2, metal not drawn]	2.88	> 0.95	fast and via the renal system	moderate uptake	-3.97 ± 0.13	
cRGDfK						1300
